Assay: label from the status in PepcDB records

Sequence | protein production
MSEVHTTIIDLDAGAVFSGTPSGRIIKGFDKPCAHTPNIDPDYVFHECSRDIVVWLMDSSDPLYVFGPTGSGKTSAIKQLAARLNYPVFDVTGHGRLEFPDLVGHLSVRDGSMEFQYGPLALAMRHGGILLLNEIDLLEPATATGFNGILDGEPLCIPENGGEIITPHPMFRFAATANTNGGSDDTGLYQGTLRQNLAFLDRFWLCEMPYPAPEAEKALLERRAPMLPDDIRTRMVDYANEVRRLFMGESGTTYGHSIEVTFSTRTLLRWADLTVRFQPLARQGIQPLTYALDRALGFKASKDTRTTLHELAQRLFPQHAATGE | failed
MKYKLLVLDVDGTLLNDEKEITPRTLATLLKVQQMGVHIVLASGRPTYGILPLAKKLELGNYGGYILSYNGAQVINAKNGEVLLERRINPEMLPYLEKKARKNGFAIFTYTEDRMIADQADNEHILQEAFLNRMELIEEPEFSVAVDFAPSKCMLVSDDEEALIGLEEHWKKRLNGALDVFRSEPYFLEVLPCGIDKSTSLGALLSHLDITPEEIIVIGDGVCDVSMIQFAGLGIAMGNAQDSVKVCADVVTASNEEDGVALAVEKAILSEIRPAEIPLDQLNERARHALMGNLGIQYTYASEDRVEATMPVDERTRQPFGILHGGATLALAETVAGLGSMILCQPDEIVVGMQVSGNHMSSAHEGDTVRAVGTIIHKGRSSHVWNVDVFTSTDKLVSSIRVVNSILKKR | failed
MGITRKYIANLKDLPTRVQDENDCTSEPFTKPRLCCKMVNKIRNTLVSTETFLQKENITLDTYKRIIRDLVIHLDRVTTKVFVNSLPYNVMDDLGLQECEAFVLKWSEELRKLQSEYRNHLDQISNIERLRRSLNVCLKTREDQIQKVQKEFQWFINILKSLPKSSVCQDGFARIELLNLYRQWKKGQLISMLPIMDFIMKTLLKEKDSILKRKLQPKSA | failed
MVRKGQMIIGAFACLIASMSWGAMFPVADHALEYIDPFYFSLIRYGAVAIMLIVLLLMKEGKQAFRLEGRGRLLVFFGTMAFTVYNVLIFLGQMLMGKSGVMVASIMEALMPMISICILWGYKRVKPKKYMITSMIIAFIGAVFVITKGDVSFFLTLKDNMFSLACIFVGVVGWVIYTMGGQTCSDWSTLRYSTLTCVFGTTVTGIITVLITSLGYVSVPSMGTISVVKYDLLFMMTLPGIVALLAWNYGVKILSSINGILFINFVPITTLVIMMMQGYQITMFDIVGTLFVIAALIRNNVCQRKEENINKKMLQEEQLRQAV | failed
MEYYDIIIVGAGPAGSTLARALEDSGKRVLIIDKQAFPRDKTCAGWVTPAVMASLDIDPGKYSVGRTLQPIRRFRIGMMGQSAVENDHGDIVSYGIRRCEFDDYLLDRAECEKQLATAVKSINRNNGNWVINDQWQAPLLVGAGGHFCPVARLLGDGPGKHETVVAAKEVEFEMTPEQARACEARGDTPELWFCRDLKGYAWVFRKGSYLNIGLGREDNHRLSDHLEAFVEEMKQSGRIPSDLPGRFKGHAYLLYAHANRPLVDDGVLLIGDAAGLAYTQSGEGIRPAIESALMAANVIKAAPDYSALSLQSYGERIAERFGTRATDQQPGFEVPEWLKQPIASTLMRSHWFTRKVVTEKWFLHQEVPPLEVAV | failed
MRALIVSNPNSTTQSAEMFRHVIPTLRAVPGLELRAQMTHYAGHARHMCENLTVEDYDVVIAVGGDGTVNEVINGLLGDLPSAPPALAVIPTGSANVFARALGLPADPAQAAEVLADALHKGSTRRINLGKWGS | failed
MAGFMKNAMSYLGMSDVVDDEDDYIEEDEEQKPASKSAFDSDHTVTPLASTTAPAASSTTKPFPGGRVNRITTIHPKSYEDAQLVGRALRDGVPVVLNLTGVAEAVAYRIVDFSAGVVFGVRGSLERVTPRVFLLSPAQVNIKVEEPTKPASAHDLFADLEHHHHHH | failed
MINKDTQLCMSLSGRPSNFGTTFHNYLYDKLGLNFIYKAFTTQDIEHAIKGVRALGIRGCAVSMPFKETCMPFLDEIHPSAQAIESVNTIVNDNGFLRAYNTDYIAIVKLIEKYHLNKNAKVIVHGSGGMAKAVVAAFKNSGFEKLKIYARNVKTGQYLAALYGYAYINSLENQQADILVNVTSIGMKGGKEEMDLAFPKAFIDNASVAFDVVAMPVETPFIRYAQARGKQTISGAAVIVLQAVEQFELYTHQRPSDELIAEAAAFARTKF | not failed
MSERRDAILKASATAIAQRGIRGLRVNDVAEVAGVSPGLLYYHFKDRIGLLEAALNYINDRARAYRSEGEGSGDSARDRLTRSLLGEIQDRPEVVENSLAWNELRASAVYEEALRDPLARTTAAWVSEIADAIVQAQATGEISRSLDPQPTAVTMTALVEGLSGRWLCKEISTEDARSHLLGAIDVVMSEPTHHTADTPVTPTPKEYR | not failed

From a protein production outcome set (Wang et al. 2014)
